Source: PMC3285688, “Active Site Mutations Change the Cleavage Specificity of Neprilysin” (PLoS ONE, 2012)
Values joined by “and” are separate entries in the source; they are usually repeats but may differ in a detail not shown here. Equal entries are not always repeated.

Key:
[1] = biological target: secreted form of human neprilysin, mutant F563L (human); assay: enzyme kinetics, competitive (alternate substrate) inhibition of Glut-Ala-Ala-Phe-MNA hydrolysis, Dixon plot; insulin B chain varied from 1 to 40 µM against hydrolysis of the fluorogenic substrate Glut-Ala-Ala-Phe-MNA by NEP or mutant; Ki from ID50 = Ki(1+[S]/Km); 37°C, 20 mM MES buffer, pH 6.5
[2] = biological target: secreted form of human neprilysin, mutant F563M (human); assay: as above
[3] = biological target: secreted form of human neprilysin (shNEP), wild type (human) (UniProt P08473); assay: as above
[4] = biological target: secreted form of human neprilysin, mutant F563I (human); assay: as above
[5] = biological target: secreted form of human neprilysin, mutant F563V (human); assay: as above
leu-ENK [6] = assay: Dual substrate assay: leu-ENK hydrolysis in presence of insulin B chain; assay type: biochemical; conditions: 15 µM insulin B chain and 64 µM leu-ENK together, 37°C, 20 mM MES buffer, pH 6.5
Experimental: (§1) The rate of cleavage of a substrate mixture is determined by both the kcat for that substrate as well by the affinity for the substrate. […] This is expected, given that each peptide acts as a competitive inhibitor of the other. […] That is the ratio for leu-ENK/insulin B chain cleavage is 3 for NEP^S546E compared to 6 for wild-type NEP.
(§2) Cleavage of physiological peptides was measured via reverse phase high performance liquid chromatography (HPLC) following incubation of the purified NEP or its mutants with 15 µM insulin B chain (Sigma Aldrich), 24 µM Aß1–40 (Anaspec), or 64 µM leu-ENK (Sigma) in 100 µL of 20 mM MES, pH 6.5, at 37°C. Reactions were run in triplicate. HPLC was carried out in a Vydac C4 column using a linear gradient from 0.1% trifluoroacetic acid (TFA) in 95% water, 5% acetonitrile to 0.1% TFA in 50% acetonitrile/water at a flow rate of 1 mL/min. Peptides and hydrolysis products were detected at 214 nm and quantified by measuring peak areas. Peptides obtained from HPLC were analyzed on an Applied Biosystems 4800 MALDI TOF/TOF Proteomics Analyzer at the University of Kentucky Proteomics core. This facility is supported in part by grant P20RR020171 from the NIH/NCRR.

[7] = tested on: leu-ENK and insulin B chain; assay: Dual substrate assay: substrate preference leu-ENK versus insulin B chain; assay type: biochemical; conditions: ratio of rates, 15 µM insulin B chain and 64 µM leu-ENK together
Experimental: as §1, §2

Aß1–40 [8] = assay: Time course of product peak accumulation from Aß1–40; assay type: biochemical; conditions: 24 µM Aß1–40, 37°C, 20 mM MES, pH 6.5; 0-360 min, HPLC peak area, linear phase
Experimental: Similar to the analysis conducted with insulin B chain, the linear rate of product accumulation was determined for each peak and normalized to the amount of protein in the reaction, Table 7 . Unlike the hydrolysis of insulin B chain, the hydrolysis of Aß1–40, even at the earliest time points, produced products resulting from multiple cleavage events. Out of the 12 identified product peaks, only 3 could be produced by a single cleavage. Rates for all cleavages were calculated and are given in Figure 4, B–D , but only the three putative primary cleavage sites can be compared.
as §2

leu-ENK [9] = assay: Rate of leu-ENK hydrolysis (HPLC); assay type: biochemical; conditions: 64 µM leu-ENK, 37°C, 20 mM MES buffer, pH 6.5; disappearance of substrate by HPLC; at least triplicate
Experimental: as §2
(§3) Statistical analysis comparing wild-type NEP and its mutants was performed with Prism 4 software using a two-tailed paired t-test with a 95% confidence interval.

insulin B chain [10] = assay: Rate of insulin B chain hydrolysis (HPLC); assay type: biochemical; conditions: 15 µM insulin B chain, 37°C, 20 mM MES buffer, pH 6.5; disappearance of substrate by HPLC; at least triplicate
Experimental: as §2, §3

insulin B chain [11] = assay: Dual substrate assay: insulin B chain hydrolysis in presence of leu-ENK; assay type: biochemical; conditions: 15 µM insulin B chain and 64 µM leu-ENK together, 37°C, 20 mM MES buffer, pH 6.5
Experimental: as §1, §2

Aß = conditions: transgenic mice; cited from earlier work
From the text: Because of its multiple targets, NEP has been the focus of numerous studies attempting to modulate its activity for therapeutic purposes. One such target is the use of NEP to reduce Aß peptide levels in Alzheimer's disease, since the oligomerization of Aß has been linked to the etiology of this disease. […] In yet another application inhibitors of NEP were developed to block its “enkephalinase” activity to increase the concentra ...

insulin B chain [12] = assay: Insulin B chain as alternate substrate (competitive) inhibitor of Glut-Ala-Ala-Phe-MNA hydrolysis (Dixon plot); assay type: biochemical; conditions: insulin B chain 1 to 40 µM as competitive inhibitor of Glut-Ala-Ala-Phe-MNA hydrolysis by the enzyme form, 37°C, 20 mM MES, pH 6.5, ID50 converted to Ki
Experimental: (§4) Kinetic constants for NEP and its mutants were obtained using the assay conditions noted above, but with Glut-Ala-Ala-Phe-MNA varied from 20 to 500 µM. Typically 12 data points were obtained. The data were fit to the Michaelis-Menten equation using Prism4 software. The Ki for insulin B chain was obtained by measuring the rate of Glut-Ala-Ala-Phe-MNA hydrolysis in the presence of varying concentrations of insulin B chain from 1 to 40 µM. Data were fit to a Dixon plot (1/rate versus [insulin B chain]) using Prism4 software and the ID50 obtained as the –x intercept, where ID50 corresponds to the concentration of insulin producing 50% inhibition. The actual Ki was obtained from the equation: ID50 = Ki (1+ [Glut-Ala-Ala-Phe-MNA]/KmGlut-Ala-Ala-Phe-MNA), [33].

[13] = Hydrolysis of synthetic substrate Glut-Ala-Ala-Phe-MNA by NEP and mutants (fluorogenic); assay type: biochemical; conditions: 37°C, 20 mM MES buffer, pH 6.5
Experimental: Reactions of 400 µl contained 100 µM Glut-Ala-Ala-Phe-MNA, 1 µg of aminopeptidase and 15 to 100 ng of NEP or mutant NEP depending on their activity in 20 mM MES buffer, pH 6.5. Activity was monitored with a Spectra Max Gemini XS plate reader using an excitation wavelength of 340 nm and an emission wavelength of 425 nm.
as §4

Aß1–40 [14] = assay: Rate of Aß1–40 hydrolysis (HPLC); assay type: biochemical; conditions: 24 µM Aß1–40, 37°C, 20 mM MES buffer, pH 6.5; disappearance of substrate by HPLC; at least triplicate
Experimental: as §2, §3

insulin B chain [15] = assay: Time course of product peak accumulation from insulin B chain; assay type: biochemical; conditions: 15 µM insulin B chain, 37°C, 20 mM MES, pH 6.5; 0-180 min, HPLC peak area 214 nm, linear phase
From the text: As a representative of the NEP^F563 and NEP^S546 mutants, we compared the cleavage profile of NEP^F563L and NEP^S546E to that of NEP using time course experiments, Figure 2 . By adjusting the amount of NEP mutant used, the rate of hydrolysis of insulin B chain by all NEP forms was virtually identical. […] Since rates were based on peak areas measured at 214 nm, which in turn is dependent on both the number of peptide bonds and the number of aromatic residues within a given peptide, only the observed rates of change for a particular peptide product can be compared between enzyme forms. A comparison of the rate of change of different peaks within the same enzyme form or between enzyme forms is not valid under our conditions of analysis.
as §2

## insulin B chain (from UniProt P01317 25-54) (peptide)
[1]
  Ki: 1500 nM
[2]
  Ki: 1200 nM
[3]
  Ki: 1900 nM
[4]
  Ki: 2500 nM
[5]
  Ki: 1000 nM

B1: NEP: secreted form of human NEP (shNEP) expressed as a C-terminal hexahistidine fusion protein (protein, UniProt P08473 52-750, looked up)
extracellular domain: YDDGICKSSDCIKSAARLIQNMDATTEPCTDFFKYACGGWLKRNVIPETSSRYGNFDILRDELEVVLKDVLQEPKTEDIVAVQKAKALYRSCINESAIDSRGGEPLLKLLPDIYGWPVATENWEQKYGASWTAEKAIAQLNSKYGKKVLINLFVGTDDKNSVNHVIHIDQPRLGLPSRDYYECTGIYKEACTAYVDFMISVARLIRQEERLPIDENQLALEMNKVMELEKEIANATAKPEDRNDPMLLYNKMTLAQIQNNFSLEINGKPFSWLNFTNEIMSTVNISITNEEDVVVYAPEYLTKLKPILTKYSARDLQNLMSWRFIMDLVSSLSRTYKESRNAFRKALYGTTSETATWRRCANYVNGNMENAVGRLYVEAAFAGESKHVVEDLIAQIREVFIQTLDDLTWMDAETKKRAEEKALAIKERIGYPDDIVSNDNKLNNEYLELNYKEDEYFENIIQNLKFSQSKQLKKLREKVDKDEWISGAAVVNAFYSSGRNQIVFPAGILQPPFFSAQQSNSLNYGGIGMVIGHEITHGFDDNGRNFNKDGDLVDWWTQQSASNFKEQSQCMVYQYGNFSWDLAGGQHLNGINTLGENIADNGGLGQAYRAYQNYIKKNGEEKLLPGLDLNHKQLFFLNFAQVWCGTYRPEYAVNSIKTDVHSPGNFRIIGTLQNSAEFSEAFHCRKNSYMNPEKKCRVW
modifications: extracellular domain C-terminal His6 tag
notes: secreted form of human NEP (shNEP) expressed as a C-terminal hexahistidine fusion protein
leu-ENK [6]
  leu-ENK hydrolysis rate, dual substrate assay: 1.16 ± 0.06 pmol/min/ng
leu-ENK [6]; numbers in parenthesis
  leu-ENK hydrolysis, activity relative to the uninhibited value: 0.61
[7]
  Ratio leu-ENK insulin B chain: 6 and 5.8
Aß1–40 [8]
  Accumulation rate of peak Aß 1–9 (single cleavage G^9-Y^10): 7 Δarea/min/ng
  Accumulation rate of peak Aß 1–16 (single cleavage K^16-L^17): 22 Δarea/min/ng
  Accumulation rate of peak Aß 1–17 (single cleavage L^17-V^18): 75 Δarea/min/ng
  Accumulation rate of peak Aß 4–9 (dual cleavages A^3-F^4, G^9-Y^10): 10 Δarea/min/ng
  Accumulation rate of peak Aß 4–16 (dual cleavages A^3-F^4, K^16-L^17): 7 Δarea/min/ng
  Accumulation rate of peak Aß 4–17 (dual cleavages A^3-F^4, L^17-V^18): 9 Δarea/min/ng
  Accumulation rate of peak Aß 10–16 (dual cleavages G^9-Y^10, K^16-L^17): 4 Δarea/min/ng
  Accumulation rate of peak Aß 10–17 (dual cleavages G^9-Y^10, L^17-V^18): 18 Δarea/min/ng
  Accumulation rate of peak Aß 12–17 (dual cleavages E^11-V^12, L^17-V^18): 3 Δarea/min/ng
  Accumulation rate of peak Aß 20–28 (dual cleavages F^19-F^20, K^28-G^29): 11 Δarea/min/ng
  Accumulation rate of peak Aß 20–29 (dual cleavages F^19-F^20, G^29-A^30): 16 Δarea/min/ng
  Accumulation rate of peak Aß 20–30 (dual cleavages F^19-F^20, A^30-I^31): 34 Δarea/min/ng
leu-ENK [9]
  Rate of hydrolysis of leu-ENK: 1.90 ± 0.23 pmol/min/ng
Insulin B chain [10]
  Rate of hydrolysis of Insulin B Chain: 0.86 ± 0.13 pmol/min/ng
Insulin B chain [11]
  Insulin B Chain hydrolysis rate, dual substrate assay: 0.20 ± 0.04 pmol/min/ng
Insulin B chain [11]; numbers in parenthesis
  Insulin B Chain hydrolysis, activity relative to the uninhibited value: 0.23
Aß
  Effect of NEP expression on cognitive deficits typically attributed to AD: ameliorates cognitive deficits
  Effect of NEP expression on level of Aß: decreases the level of Aß
Insulin B chain [12]
  Ki: 1900 ± 200 nM
[13]; 100 µM Glut-Ala-Ala-Phe-MNA, fluorescence ex 340 nm, em 425 nm
  Specific Activity (Glut-Ala-Ala-Phe-MNA cleavage): 45.9 ± 2.5 pmol/min/ng
[13]; Glut-Ala-Ala-Phe-MNA 20 to 500 µM, Michaelis-Menten fit
  Km: 51 ± 11 µM
Aß1–40 [14]
  Rate of hydrolysis of Aß1–40: 198 ± 12 fmol/min/ng
Insulin B chain [15]
  Rate of accumulation of peak 1–5 (single cleavage H^5-L^6): 59 Δarea/min/ng
  Rate of accumulation of peak 1–10 (single cleavage H^10-L^11): 163 Δarea/min/ng
  Rate of accumulation of peak 1–11 (single cleavage L^11-V^12): 88 Δarea/min/ng
  Rate of accumulation of peak 1–14 (single cleavage A^14-L^15): 167 Δarea/min/ng
  Rate of accumulation of peak 1–16 (single cleavage Y^16-L^17): 31 Δarea/min/ng
  Rate of accumulation of peak 15–23 (two cleavages A^14-L^15, G^23-F^24): 23 Δarea/min/ng
  Rate of accumulation of peak 15–30 (single cleavage A^14-L^15): 135 Δarea/min/ng
  Rate of accumulation of peak 17–24 (two cleavages Y^16-L^17, F^24-F^25): 33 Δarea/min/ng
  Rate of accumulation of peak 17–30 (single cleavage Y^16-L^17): 171 Δarea/min/ng
  Rate of accumulation of peak 24–30 (single cleavage G^23-F^24): 268 Δarea/min/ng
